Results on 13 proteins are retold here after US20250027068.

Changes are numbered by the printed parent chain.

B1: PRT-360 (protein)
chain: MSQTEDSESLQRLRDIEDFQAEKKDQNVVYTKWLDGVDVKDHDFRKIVDGNSAYYATPLLNGRGWYDINKDFNRDSDKCAAAVAANMFHYWLDRNRDNVDRFLRQNPEKHGIIELPDGQLKLSDFLNTYESDDGYRDKSKLFDFISENFNGPVWTDKLLDNYINGYAYNYKYGRTIEDPTKNTSKINFFKEVFNEKILTNNHSIRNQNEFSVLLIEALYTGKAIGLSYGPAGLRHSLGHIISVWGADLDADGNVVAIYVTDSDDKKLTIGDERVGLKRYKISTDDEGRLRLTAYEETHNTGGQVRGLWTLDTGKQAWADYFDKTEQTGTDQAEQ
B2: PRT-369 (protein)
chain: B1 chain with S52I, W65L, S76N, P179S, F210L, I215S
B3: PRT-346 (protein)
chain: B1 chain with K24E, D25M, W65F, R94I, D133H, E147N, I215S, G287N, Q315Y
B4: PRT-354 (protein)
chain: B1 chain with D25M, S52E, W65F, R94I, D133H, F210L, I215S, G287N, V304I, Q315Y
B5: PRT-368 (protein)
chain: B1 chain with S52I, S76N, P179S
B6: PRT-361 (protein)
chain: B1 chain with D25K, W65F, V304I
B7: PRT-353 (protein)
chain: B1 chain with K24E, D25M, R94I, D133H, Y170S, S236G, G287N, Q315Y
B8: PRT-362 (protein)
chain: B1 chain with D25K, W65F, Y170S, S236G, V304I
B9: PRT-370 (protein)
chain: B1 chain with S76N, P179S
B10: PRT-337 (protein)
chain: MTITSVWTKGVTPPTPEDFRKNNEDVLHAPYLANQGWYDITKAFDGKDNLLCGAATAGNMLHWWFDQNKEEIERYLKKHPEKQKIIFNNQELFDVKAAIDTKDSQTNSKLFNYFRDKAFPNLSARQLGVMPDLVLDMFINGYYLNLGKTQSTDVNRPYQDKDKRGGIFDAVFTRGDQTTLLTARHDLKNKGLNEISDLIKQELTEGKALALSHTYANVSINHVINLWGADFDAEGNLEAIYVTDSDANASIGMKKYFVGRNAHGKVAISAKKIEGDNIGAQVLGLFTLSTGQDIWQKLS
B11: PRT-338 (protein)
chain: B10 chain with K21E, T290L
B12: PRT-339 (protein)
chain: B10 chain with K21E, N88G, N112D, I294Q
B13: PRT-345 (protein)
chain: B10 chain with K21E, N112D, N236E, A249P

The target in this series is pooled human IgG (human IgG1,2,3 and 4).
In the case of B1, the Enzyme Activity Endpoint Assay (purified): Fab′2 was found to be 89 ng/µL, the Enzyme Activity Endpoint Assay (purified): Fc amounted to 241 ng/µL, the Enzyme Activity Endpoint Assay (purified): IgG amounted to 191 ng/µL and the Enzyme Activity Endpoint Assay (purified): scIgG worked out at 684 ng/µL.
For B2, the Enzyme Activity Endpoint Assay (purified): Fab′2 was 259 ng/µL, the Enzyme Activity Endpoint Assay (purified): Fc came out at 284 ng/µL, the Enzyme Activity Endpoint Assay (purified): IgG was determined as 123 ng/µL and the Enzyme Activity Endpoint Assay (purified): scIgG turned out to be 445 ng/µL.
On to B3, for which the Enzyme Activity Endpoint Assay (purified): Fab′2 was 607 ng/µL, the Enzyme Activity Endpoint Assay (purified): Fc is 217 ng/µL, the Enzyme Activity Endpoint Assay (purified): IgG stood at 0 ng/µL and the Enzyme Activity Endpoint Assay (purified): scIgG was 246 ng/µL.
In turn, B4 yielded an Enzyme Activity Endpoint Assay (purified): Fab′2 of 618 ng/µL, an Enzyme Activity Endpoint Assay (purified): Fc of 213 ng/µL, an Enzyme Activity Endpoint Assay (purified): IgG of 0 ng/µL and an Enzyme Activity Endpoint Assay (purified): scIgG of 233 ng/µL.
For B5, the Enzyme Activity Endpoint Assay (purified): Fab′2 was 0 ng/µL, the Enzyme Activity Endpoint Assay (purified): Fc worked out at 3 ng/µL, the Enzyme Activity Endpoint Assay (purified): IgG turned out to be 0 ng/µL and the Enzyme Activity Endpoint Assay (purified): scIgG worked out at 0 ng/µL.
Consider B6, for which the Enzyme Activity Endpoint Assay (purified): Fab′2 worked out at 86 ng/µL, the Enzyme Activity Endpoint Assay (purified): Fc was determined as 243 ng/µL, the Enzyme Activity Endpoint Assay (purified): IgG is 130 ng/µL and the Enzyme Activity Endpoint Assay (purified): scIgG is 753 ng/µL.
The corresponding values for B7 are 101 ng/µL, 259 ng/µL, 189 ng/µL and 767 ng/µL.
B8: the Enzyme Activity Endpoint Assay (purified): Fab′2 is 720 ng/µL, the Enzyme Activity Endpoint Assay (purified): Fc stood at 225 ng/µL, the Enzyme Activity Endpoint Assay (purified): IgG was found to be 0 ng/µL and the Enzyme Activity Endpoint Assay (purified): scIgG stood at 299 ng/µL.
The corresponding values for B9 are 654 ng/µL, 348 ng/µL, 0 ng/µL and 288 ng/µL.
Taken in the same sequence, the figures for B10 were 0 ng/µL, 74 ng/µL, 38 ng/µL and 259 ng/µL.
Protein B11 registered an Enzyme Activity Endpoint Assay (purified): Fab′2 of 766 ng/µL, an Enzyme Activity Endpoint Assay (purified): Fc of 203 ng/µL, an Enzyme Activity Endpoint Assay (purified): IgG of 0 ng/µL and an Enzyme Activity Endpoint Assay (purified): scIgG of 287 ng/µL.
B12: the Enzyme Activity Endpoint Assay (purified): Fab′2 is 721 ng/µL, the Enzyme Activity Endpoint Assay (purified): Fc stood at 167 ng/µL, the Enzyme Activity Endpoint Assay (purified): IgG came out at 0 ng/µL and the Enzyme Activity Endpoint Assay (purified): scIgG is 288 ng/µL.
With B13, the Enzyme Activity Endpoint Assay (purified): Fab′2 came to 61 ng/µL, the Enzyme Activity Endpoint Assay (purified): Fc was determined as 248 ng/µL, the Enzyme Activity Endpoint Assay (purified): IgG came out at 123 ng/µL and the Enzyme Activity Endpoint Assay (purified): scIgG was 772 ng/µL.
